Laboratory results taken from the supplement of paper PMC12042874.
± gives the uncertainty stated by the source.

Test: amyloid nucleation score (Sup35N fusion, yeast selection) (log enrichment); library NNK1; higher = more nucleation; inactive = no reads after selection
In short: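 The nucleation score is a DiMSum log enrichment of output over input reads, centred on the mode score of non-aggregating sequences. Sequences under 100 input reads were excluded, and reads came from Illumina sequencing of plasmid inserts. Psi-negative yeast expressing Sup35N fused to peptides of 20 random codons were induced with 100 μM copper sulfate for 24 hours and grown 7 days at 30°C on medium lacking adenine and uracil. Random libraries had three technical output replicates.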
Work on ASRFDCEDIFGRTCGYVHYF yielded an amyloid nucleation score of -0.113 ± 0.79.
With ASRVQGMYYHVHQPLKQLWV the amyloid nucleation score was “inactive”.
Work on ASSSGFSMGLCQMYNGTFMG yielded an amyloid nucleation score of -1.21 ± 0.94.
With ASTYMYGFSYIYMLVNRCEC the amyloid nucleation score was 1.59 ± 0.14.
ATGSMGQSSSTGDASKLASF gave an amyloid nucleation score of 1.3 ± 0.32.
In the case of ATMVMELMVSELGLEEVFDV, the amyloid nucleation score is reported as -0.216 ± 0.49.
In the case of ATPMFNVPVHRCVKKV, the amyloid nucleation score is reported as -0.206 ± 0.46.
ATRDYVSGANDGIGPQMMWV gave an amyloid nucleation score of 0.324 ± 0.49.
In the case of ATRFIEESTL, the amyloid nucleation score is reported as -0.942 ± 0.68.
For ATRSSSFRMHDKNLCLTVDM, the amyloid nucleation score was 0.855 ± 0.48.
In the case of ATSDI, the amyloid nucleation score is reported as -0.076 ± 0.27.
With ATSGGYGRFLVIISFDWVGA the amyloid nucleation score was -0.34 ± 0.37.
Substance ATYSLIFEPWPGPRLVPMQG has an amyloid nucleation score of -0.12 ± 0.62.
Substance AVFWSNYCSMSCMSKTKKKS has an amyloid nucleation score of 0.159 ± 0.51.
Substance AVGYYCKSINRKHFIVEKLQ has an amyloid nucleation score of -0.298 ± 0.4.
In the case of AVIAMYRVNAPSC, the amyloid nucleation score is reported as 1.15 ± 0.41.
AVIVVV gave an amyloid nucleation score of 0.175 ± 0.39.
AVMFVTCLIVSASGHLLYTL showed an amyloid nucleation score of 1.39 ± 0.88.
Work on AVQYNKVKERTLSQPWTHHV yielded an amyloid nucleation score of -1.86 ± 1.7.
AVRHLPAPRHSMCLIWYCNC showed an amyloid nucleation score of 0.156 ± 0.37.
For AVSDVTVIRRCMFIG, the amyloid nucleation score was 0.448 ± 0.47.
In the case of AVSNLATEGRVYLKVRLESW, the amyloid nucleation score is reported as -0.991 ± 2.4.
Substance AVVAIYSQILRNGSVLSWFP has an amyloid nucleation score of 0.242 ± 0.51.
With AVYFSSFR the amyloid nucleation score was 0.522 ± 0.33.
In the case of AWFGYISYWNEFFLWDCFWS, the amyloid nucleation score is reported as -0.366 ± 0.4.
Substance AWKKFSWDRLSKP has an amyloid nucleation score of 5.16 ± 0.072.
Substance AWMSRIVNNPGSNTFSRQWL has an amyloid nucleation score of -0.284 ± 0.71.
Work on AWVYSYSRSILMWGVTGLWV yielded an amyloid nucleation score of 0.77 ± 0.61.
AYFRGRVNFSLTFLAYT showed an amyloid nucleation score of -0.098 ± 0.56.
With AYNLNLYNRCQVLMLISSTR the amyloid nucleation score was 4.91 ± 0.048.
Work on AYNVVHSSLGTKGVRGSCAT yielded an amyloid nucleation score of -0.74 ± 1.7.
For CAGWFRTFGAYKDAMARLAR, the amyloid nucleation score was “inactive”.
In the case of CARNNHELVNYFKAFIPVVA, the amyloid nucleation score is reported as 0.751 ± 0.43.
In the case of CASRNCGNYVK, the amyloid nucleation score is reported as “inactive”.
In the case of CAVHYKLCDLYHT, the amyloid nucleation score is reported as 0.381 ± 0.5.
CAVVVGVSGGAHEGVGKTKY showed an amyloid nucleation score of -0.35 ± 0.45.
With CCFNYKSPWSMWFNLRLSNP the amyloid nucleation score was 5.06 ± 0.071.
In the case of CCIMSRIGTCLWVEWRWCRG, the amyloid nucleation score is reported as 0.243 ± 0.39.
Work on CCQSFLLKSPSYRAMAFIWW yielded an amyloid nucleation score of -0.929 ± 0.33.
In the case of CCWNNSLS, the amyloid nucleation score is reported as “inactive”.
Substance CCYWMASALENRSRRIRLHV has an amyloid nucleation score of -0.612 ± 0.84.
CDCTNT gave an amyloid nucleation score of -0.78 ± 1.4.
In the case of CDSYSKMPPGRNILVCQFCW, the amyloid nucleation score is reported as 2.15 ± 0.11.
CEWFPRHKMYLESVFVYKRL showed an amyloid nucleation score of -0.116 ± 0.56.
Work on CFCKGGPVVTRMWEGIYPC yielded an amyloid nucleation score of -0.014 ± 0.27.
Substance CFGFFVWANHAYHAQRCVAS has an amyloid nucleation score of 1.29 ± 0.33.
Work on CFGRRRVRIELGTAWPFSVL yielded an amyloid nucleation score of -0.754 ± 1.1.
In the case of CFGSSRVSCEYTDDRDDCGM, the amyloid nucleation score is reported as “inactive”.
In the case of CFKGF, the amyloid nucleation score is reported as 0.946 ± 0.49.
In the case of CFNLALLRVLAGTKLYSFMG, the amyloid nucleation score is reported as 0.64 ± 0.35.
For CFSRHAICT, the amyloid nucleation score was -0.863 ± 0.88.
CFVGYQW showed an amyloid nucleation score of 0.622 ± 0.63.
With CFVVAWCKTITV the amyloid nucleation score was 1.02 ± 0.66.
For CFVVVCLFMKA, the amyloid nucleation score was “inactive”.
Work on CFWVEMFFSETHMIKNYCIV yielded an amyloid nucleation score of 1.27 ± 0.61.
Substance CGALWALKV has an amyloid nucleation score of -1.04 ± 0.78.
With CGCETDMGSA the amyloid nucleation score was “inactive”.
With CGDGPHHVLCLSVVDICVGC the amyloid nucleation score was -1.04 ± 1.6.
CGDKNILTRIWLERVSVLAS showed an amyloid nucleation score of 0.056 ± 0.33.
In the case of CGDMWLTDSLHGMNCSLFRR, the amyloid nucleation score is reported as “inactive”.
Substance CGKSIEETSLRNPIPGNVLG has an amyloid nucleation score of 0.476 ± 0.55.
CGMMVSEGSVSCRSLPIYLA showed an amyloid nucleation score of 0.275 ± 0.34.
CGYCD showed an amyloid nucleation score of -1.69 ± 2.4.
For CHCNL, the amyloid nucleation score was 1.81 ± 0.38.
